Values of other authors in publication PMC11736853.
Like-named read-outs stand apart in the source and are kept apart here.

Legend:
[1] = biological target: CK2β triazole cyclised peptide (Homo sapiens) (UniProt P67870); experiment: ITC
[2] = biological target: AIF peptide 39 (Homo sapiens) (UniProt O95831)
[3] = biological target: AIF bicyclic peptide 63 (Homo sapiens) (UniProt O95831)
[4] = biological target: AIF peptide 39 (Homo sapiens) (UniProt O95831); experiment: SPR
[5] = biological target: AIF peptide 40 (Homo sapiens) (UniProt O95831); experiment: SPR
[6] = biological target: Nrf2 peptide 41 (Homo sapiens) (UniProt Q16236)
[7] = biological target: TRF2 41-residue sequence (Homo sapiens) (UniProt Q15554)
[8] = biological target: R6IP peptide 64 (Homo sapiens) (UniProt Q6IQ26)
[9] = biological target: iNOS peptide 24 (Homo sapiens) (UniProt P35228); experiment: ITC
RAP1 (Homo sapiens) = RAP1 (Homo sapiens) (UniProt Q9NYB0)
[10] = biological target: BCL9 peptide 53 347-381 (Homo sapiens) (UniProt O00512); experiment: FP
[11] = biological target: BCL9 peptide 53 347-381 (Homo sapiens) (UniProt O00512); experiment: competitive FP
[12] = biological target: BCL9 peptide 54 351-375 (Homo sapiens) (UniProt O00512); experiment: competitive FP
BCL9 peptide 54 351-375 (Homo sapiens), sequence (O00512 351-375): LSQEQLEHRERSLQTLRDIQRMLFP

β-catenin, sequence (P35222 2-781): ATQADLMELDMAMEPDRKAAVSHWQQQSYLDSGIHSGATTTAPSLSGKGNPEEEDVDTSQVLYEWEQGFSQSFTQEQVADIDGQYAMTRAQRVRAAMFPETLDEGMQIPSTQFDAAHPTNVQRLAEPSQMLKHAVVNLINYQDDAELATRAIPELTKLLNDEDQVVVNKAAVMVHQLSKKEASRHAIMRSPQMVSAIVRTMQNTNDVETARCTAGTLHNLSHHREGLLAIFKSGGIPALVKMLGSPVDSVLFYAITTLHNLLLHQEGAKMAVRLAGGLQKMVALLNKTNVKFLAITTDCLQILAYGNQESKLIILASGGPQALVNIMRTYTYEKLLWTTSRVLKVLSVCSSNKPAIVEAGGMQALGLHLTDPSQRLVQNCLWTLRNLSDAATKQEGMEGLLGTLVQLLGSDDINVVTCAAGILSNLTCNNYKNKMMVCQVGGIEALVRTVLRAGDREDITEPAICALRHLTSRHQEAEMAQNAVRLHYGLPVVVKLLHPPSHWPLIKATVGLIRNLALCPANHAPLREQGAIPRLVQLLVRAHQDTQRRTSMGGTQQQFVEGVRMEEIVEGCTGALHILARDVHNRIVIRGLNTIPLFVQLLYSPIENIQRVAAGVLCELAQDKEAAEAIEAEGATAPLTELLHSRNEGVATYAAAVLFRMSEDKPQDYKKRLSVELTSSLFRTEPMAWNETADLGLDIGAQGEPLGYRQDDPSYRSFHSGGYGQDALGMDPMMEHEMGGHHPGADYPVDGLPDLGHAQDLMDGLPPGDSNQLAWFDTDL
CypA, sequence (P62937 2-165): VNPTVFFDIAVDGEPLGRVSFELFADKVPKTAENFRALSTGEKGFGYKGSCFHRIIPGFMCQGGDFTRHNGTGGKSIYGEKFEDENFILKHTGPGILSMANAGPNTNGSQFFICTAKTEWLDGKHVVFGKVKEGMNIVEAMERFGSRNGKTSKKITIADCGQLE
BCL9 peptide 53 347-381 (Homo sapiens), sequence (O00512 347-381): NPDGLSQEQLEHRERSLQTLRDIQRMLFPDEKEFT
AIF peptide 39 (Homo sapiens), sequence (O95831 370-394): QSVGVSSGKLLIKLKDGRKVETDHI
AIF peptide 40 (Homo sapiens), sequence (O95831 whole entry, looked up, tested part not stated): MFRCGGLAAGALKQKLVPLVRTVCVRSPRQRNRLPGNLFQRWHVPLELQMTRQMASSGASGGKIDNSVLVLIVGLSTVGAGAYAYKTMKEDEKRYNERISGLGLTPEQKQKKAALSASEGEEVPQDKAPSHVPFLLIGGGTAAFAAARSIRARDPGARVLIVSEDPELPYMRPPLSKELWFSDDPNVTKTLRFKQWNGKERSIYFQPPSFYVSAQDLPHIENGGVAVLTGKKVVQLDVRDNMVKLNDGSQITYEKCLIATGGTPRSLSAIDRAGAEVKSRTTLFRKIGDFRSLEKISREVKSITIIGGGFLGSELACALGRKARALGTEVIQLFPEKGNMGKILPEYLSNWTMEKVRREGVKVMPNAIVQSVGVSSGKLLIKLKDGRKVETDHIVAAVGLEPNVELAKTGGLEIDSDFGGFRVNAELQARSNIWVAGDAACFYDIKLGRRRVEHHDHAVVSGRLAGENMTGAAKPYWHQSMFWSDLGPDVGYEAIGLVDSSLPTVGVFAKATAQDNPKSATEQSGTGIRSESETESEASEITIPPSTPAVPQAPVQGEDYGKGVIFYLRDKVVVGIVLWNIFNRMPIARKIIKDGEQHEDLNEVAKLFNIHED
Keap1, sequence (Q14145 whole entry): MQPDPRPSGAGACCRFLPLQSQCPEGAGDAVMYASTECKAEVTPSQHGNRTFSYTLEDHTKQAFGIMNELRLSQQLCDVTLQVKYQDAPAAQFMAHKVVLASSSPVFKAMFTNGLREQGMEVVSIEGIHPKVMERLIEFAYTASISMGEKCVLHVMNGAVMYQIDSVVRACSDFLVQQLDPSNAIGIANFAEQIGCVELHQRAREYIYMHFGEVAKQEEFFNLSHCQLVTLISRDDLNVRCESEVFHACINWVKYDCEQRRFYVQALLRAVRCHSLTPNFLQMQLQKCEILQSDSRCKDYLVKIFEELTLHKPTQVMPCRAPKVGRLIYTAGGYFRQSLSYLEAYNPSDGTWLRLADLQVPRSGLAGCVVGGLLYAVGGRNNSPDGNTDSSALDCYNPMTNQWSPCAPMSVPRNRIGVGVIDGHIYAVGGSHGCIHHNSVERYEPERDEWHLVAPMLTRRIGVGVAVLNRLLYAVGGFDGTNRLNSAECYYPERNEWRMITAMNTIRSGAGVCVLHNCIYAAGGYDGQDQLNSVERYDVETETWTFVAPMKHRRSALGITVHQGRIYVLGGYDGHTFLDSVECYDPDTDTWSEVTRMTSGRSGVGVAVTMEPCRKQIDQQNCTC
RAP1, sequence (Q9NYB0 2-399): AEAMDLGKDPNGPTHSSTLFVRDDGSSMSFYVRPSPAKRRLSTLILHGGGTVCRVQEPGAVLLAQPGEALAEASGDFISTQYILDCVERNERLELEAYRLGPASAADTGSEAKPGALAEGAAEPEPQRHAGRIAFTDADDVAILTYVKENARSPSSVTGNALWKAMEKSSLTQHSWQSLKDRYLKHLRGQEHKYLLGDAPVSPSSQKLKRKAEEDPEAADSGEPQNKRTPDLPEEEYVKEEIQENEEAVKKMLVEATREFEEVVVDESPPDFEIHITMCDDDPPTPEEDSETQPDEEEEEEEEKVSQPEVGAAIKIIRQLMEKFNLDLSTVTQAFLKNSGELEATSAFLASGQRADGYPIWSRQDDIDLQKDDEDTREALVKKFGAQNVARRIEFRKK
RAP1 (Homo sapiens), sequence (Q9NYB0 2-399): as above
Rab6a, sequence (P20340 2-208): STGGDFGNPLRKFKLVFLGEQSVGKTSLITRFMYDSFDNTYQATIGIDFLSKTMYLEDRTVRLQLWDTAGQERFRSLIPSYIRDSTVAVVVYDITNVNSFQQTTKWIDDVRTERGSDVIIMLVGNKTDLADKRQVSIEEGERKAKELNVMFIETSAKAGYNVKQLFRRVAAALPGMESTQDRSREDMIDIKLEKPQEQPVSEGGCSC
CK2α, sequence (P68400 whole entry): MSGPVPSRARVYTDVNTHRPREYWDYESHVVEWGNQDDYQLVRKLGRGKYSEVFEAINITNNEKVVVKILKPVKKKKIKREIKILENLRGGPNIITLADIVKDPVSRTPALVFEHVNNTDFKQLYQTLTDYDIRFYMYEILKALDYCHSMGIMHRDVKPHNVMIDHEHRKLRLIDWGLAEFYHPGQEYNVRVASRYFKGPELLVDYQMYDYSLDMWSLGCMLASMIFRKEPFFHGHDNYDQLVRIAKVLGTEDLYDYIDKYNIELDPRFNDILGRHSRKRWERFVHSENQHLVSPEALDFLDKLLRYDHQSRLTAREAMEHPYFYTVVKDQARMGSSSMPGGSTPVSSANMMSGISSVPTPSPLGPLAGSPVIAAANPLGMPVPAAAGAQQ
CK2β triazole cyclised peptide (Homo sapiens), sequence (P67870 2-215): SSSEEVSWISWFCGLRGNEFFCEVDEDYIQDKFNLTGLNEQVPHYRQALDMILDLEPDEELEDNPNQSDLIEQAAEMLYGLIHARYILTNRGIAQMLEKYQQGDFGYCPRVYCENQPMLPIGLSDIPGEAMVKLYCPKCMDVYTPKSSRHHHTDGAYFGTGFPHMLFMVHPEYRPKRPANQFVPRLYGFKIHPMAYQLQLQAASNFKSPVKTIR
Nrf2 peptide 41 (Homo sapiens), sequence (Q16236 whole entry, looked up, tested part not stated): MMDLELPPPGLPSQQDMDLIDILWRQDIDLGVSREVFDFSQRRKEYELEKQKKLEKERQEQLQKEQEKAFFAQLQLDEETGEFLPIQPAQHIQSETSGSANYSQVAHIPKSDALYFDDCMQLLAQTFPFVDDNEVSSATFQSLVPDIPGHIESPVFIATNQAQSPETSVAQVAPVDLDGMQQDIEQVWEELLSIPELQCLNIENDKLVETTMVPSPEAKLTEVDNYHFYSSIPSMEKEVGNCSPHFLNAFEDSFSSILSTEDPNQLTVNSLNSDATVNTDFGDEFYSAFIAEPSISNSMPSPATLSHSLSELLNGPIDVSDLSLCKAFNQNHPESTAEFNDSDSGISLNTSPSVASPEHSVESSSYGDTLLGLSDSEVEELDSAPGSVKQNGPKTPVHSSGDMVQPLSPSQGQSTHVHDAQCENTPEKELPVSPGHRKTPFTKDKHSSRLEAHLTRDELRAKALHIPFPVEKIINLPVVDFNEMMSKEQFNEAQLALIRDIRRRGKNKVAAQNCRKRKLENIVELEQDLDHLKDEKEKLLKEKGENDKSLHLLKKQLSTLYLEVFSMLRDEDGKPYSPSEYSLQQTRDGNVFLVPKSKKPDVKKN
SPSB2, sequence (Q99619 whole entry): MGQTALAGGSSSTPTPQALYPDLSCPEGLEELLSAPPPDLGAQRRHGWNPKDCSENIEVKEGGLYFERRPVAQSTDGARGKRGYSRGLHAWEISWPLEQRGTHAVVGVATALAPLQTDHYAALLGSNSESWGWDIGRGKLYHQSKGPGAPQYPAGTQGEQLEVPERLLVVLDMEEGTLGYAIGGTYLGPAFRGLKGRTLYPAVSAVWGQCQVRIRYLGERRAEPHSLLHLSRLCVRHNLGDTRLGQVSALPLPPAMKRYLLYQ

Substance: CK2α (from UniProt P68400)
- Kd [1]: 460 nM

Substance: CypA (from UniProt P62937)
- Kd [2]: 5000 nM
- Kd [3]: 850 nM
- Kd [4]: 12000 nM
- Kd [5]: 2400 nM

Substance: Keap1 (from UniProt Q14145)
- Kd [6]: 27.3 nM

Substance: RAP1 (from UniProt Q9NYB0)
- Kd [7]: 16.5 nM

Substance: Rab6a (from UniProt P20340)
- Kd [8]: 7800 nM

Substance: SPSB2 (from UniProt Q99619)
- Kd [9]: 13.3 nM

Substance: TRF2 41-residue peptide (from UniProt Q15554)
- Kd (RAP1 (Homo sapiens)): 16.5 nM

Substance: β-catenin (from UniProt P35222)
- Kd [10]: 616 nM
- Ki [11]: 960 nM
- Ki [12]: 1900 nM
